Assay results taken from PMC8748766, “The catalytic activity of TCPTP is auto-regulated by its intrinsically disordered tail and activated by Integrin alpha-1” (Nature Communications, 2022).
Positions count from the first letter of the chain named. In names and notes the source's numbering stands.

Tests used:
[1] = target: T1, TCPTPCAT (TCPTP catalytic domain, residues 1-302) (human, UniProt P17706-2 1-302); assay: NMR titration; 15N-labelled tail observed (2D [1H,15N] HSQC, 0.1 mM), unlabelled TCPTPCAT added in increasing amounts (1:0 to 1:20 tail:CAT); NMR buffer 20 mM HEPES pH 6.8, 150 mM NaCl, 0.5 mM TCEP, 90% H2O/10% D2O; 298 K or 283 K; details: both partners purified
T1 construct: T cell protein tyrosine phosphatase (TCPTP, PTPN2), human, TC45 isoform, catalytic domain residues 1-302, sub-cloned into pRP1B for all NMR experiments; (2H,15N)-labelled where it was the observed species, unlabelled where it was titrated into the labelled tail; also called T-Cell Protein Tyrosine Phosphatase catalytic domain; PTPN2 catalytic domain; source: E. coli BL21 (DE3) RIL, purified …
T1 sequence (looked up): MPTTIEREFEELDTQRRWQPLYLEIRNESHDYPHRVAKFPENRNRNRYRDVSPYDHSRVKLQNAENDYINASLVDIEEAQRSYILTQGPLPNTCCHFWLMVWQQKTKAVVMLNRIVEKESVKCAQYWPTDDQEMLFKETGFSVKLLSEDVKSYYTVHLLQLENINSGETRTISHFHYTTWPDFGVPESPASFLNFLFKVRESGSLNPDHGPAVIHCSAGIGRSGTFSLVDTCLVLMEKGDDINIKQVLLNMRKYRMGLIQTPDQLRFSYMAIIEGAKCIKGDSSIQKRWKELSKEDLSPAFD

[2] = target: T2, TCPTPCAT (Homo sapiens, UniProt P17706); assay: NMR titration (2D HSQC/TROSY) binding to TCPTPCAT
T2 construct: TCPTP and TCPTPCAT (residue 1–314) against 2 phosphotyrosine peptides derived from EGFR; His6 (N, cleaved yes); made in house; host or cells: E. coli BL21 (DE3) RIL
T2 sequence (P17706 1-314 isoform P17706-2): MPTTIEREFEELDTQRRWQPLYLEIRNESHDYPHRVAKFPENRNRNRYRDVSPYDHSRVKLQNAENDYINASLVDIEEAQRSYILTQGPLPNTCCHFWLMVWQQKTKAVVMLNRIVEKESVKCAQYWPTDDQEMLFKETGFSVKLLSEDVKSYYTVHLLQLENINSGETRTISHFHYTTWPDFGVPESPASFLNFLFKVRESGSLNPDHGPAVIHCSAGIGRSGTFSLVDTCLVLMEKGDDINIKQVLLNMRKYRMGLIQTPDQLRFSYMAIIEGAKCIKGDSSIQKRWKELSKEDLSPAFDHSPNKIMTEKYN
From the text: Polymerase chain reaction (PCR) fragments of TCPTP (residues: 1–387) TCPTPCAT (catalytic domain, residues: 1–288, 1–302 or 1–314), TCPTPTail (C-terminal tail, residues: 289–387 or 303–387) were amplified from full-length human TCPTP (TC45 isoform). TCPTP, TCPTPCAT (residues: 1–288, 1–314), and TCPTPTail (residues: 289–387) fragments were cloned into pMCSG7 including a N-terminal His6-tag using ligation-independent cloning. For all NMR experiments, the PCR fragments of TCPTP, TCPTPCAT (residues: 1–302) and TCPTPTail (residue: 303–387) were sub-cloned into pRP1B as previously described.
NMR data were collected on either Bruker NEO 600 MHz or 800 MHz spectrometers equipped with TCI HCN z-gradient cryoprobes at 298 K or 283 K. NMR measurements of TCPTP’s variant construct were recorded using (^1H,^15N)-, (^2H,^15N)-, (^1H,^15N,^13C), or (^2H,^15N,^13C)-labeled protein at a final concentration of 0.6 mM for backbone assignment or 0.1 mM for titration in NMR buffer and 90% H2O/10% D2O. The sequence-specific backbone assignments of TCPTP (residues 1–387), TCPTPCAT (residues 1–302), TCPTPTail (residues 303–387) and other variants were achieved using 3D triple resonance experiments including […], 3D HNCA, 3D HN(CO)CA, 3D HN(CO)CACB, and 3D HNCACB either as HSQC or TROSY variations. All NMR data were processed using TopSpin 4.0.5[44] and analyzed using either CARA (http://www.cara.nmr.ch) and/or CcpNMR[45].

[3] = DiFMUP assay of TCPTP, TCPTPCAT, PTP1B and PTP1BCAT; format: biochemical; details: PTP1B (1–400) vs PTP1BCAT (1–321), DiFMUP, n = 6
Protocol: Activity of TCPTP, TCPTPCAT (residue 1–314) either with or without ITGA1 peptides (ITGA1_TR; 1:50 molar ratio, ITGA1_FCT; 1:1000 molar ratio), PTP1B (residue 1–400) and PTP1BCAT (residue 1–321) were assessed in assay buffer (25 mM Hepes pH 7.4, 50 mM NaCl, and 1 mM DTT). The assay was performed in black polystyrene flat bottom 96-well plate. The concentration of DiFMUP was fixed at 10 μM and protein concentration at 2.5 nM in total reaction volume of 100 μl. The emitted fluorescent signal at 455 nm was continuously recorded for 25 min using a Tecan Infinite M1000 pro microplate reader (Tecan i-control, 2.0.10.0).

[4] = target: T3, TCPTP (full-length TCPTP, residues 1-387, TC45 isoform) (human, UniProt P17706-2 1-387); assay: cell-based or functional assay
T3 sequence (looked up): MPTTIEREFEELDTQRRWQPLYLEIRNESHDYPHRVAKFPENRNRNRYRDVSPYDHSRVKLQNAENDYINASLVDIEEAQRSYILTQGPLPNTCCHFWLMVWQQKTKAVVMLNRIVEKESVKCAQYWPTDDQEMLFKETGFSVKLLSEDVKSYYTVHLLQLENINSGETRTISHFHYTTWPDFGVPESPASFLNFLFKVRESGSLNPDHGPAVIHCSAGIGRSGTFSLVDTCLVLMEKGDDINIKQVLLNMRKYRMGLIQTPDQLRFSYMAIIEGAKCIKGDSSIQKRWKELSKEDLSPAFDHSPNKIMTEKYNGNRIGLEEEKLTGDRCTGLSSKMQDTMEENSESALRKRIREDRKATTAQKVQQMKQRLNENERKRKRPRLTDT

[5] = system: pEGFR peptide-2, derived from the EGFR's kinase domain activation loop; assay: Phosphatase kinetic analysis (Michaelis-Menten) of TCPTP constructs, pEGFR peptide-2 substrate; format: biochemical; details: mean ± SE, n = 9
Protocol: (§1) The rate of dephosphorylation of TCPTP and TCPTPCAT (residue 1–314) against 2 phosphotyrosine peptides derived from EGFR was monitored either with or without ITGA1 peptide (ITGA1_FCT & ITGA1_TR) in assay buffer (25 mM Hepes pH 7.4, 50 mM NaCl and 1 mM DTT). Lyophilized powder of all synthetic peptides was dissolved in assay buffer without DTT (phosphopeptides, 5 mM; ITGA1 peptides, 2 mM). For the kinetic analysis, the concentration of the enzyme was fixed at 1 nM while the substrate (phosphopeptides) concentration was varied from 2.5 μM to 160 μM in a total reaction volume of 200 μl. Effect of ITGA1 peptide on TCPTP & TCPTPCAT kinetics were assessed in saturated condition by adding an excess amount of ITGA1 peptide to the reaction mixture (ITGA1_TR = 1 μM; ITGA1_FCT = 25 μM). The reaction was incubated at 30 °C for 30 min and stopped by the addition of 30 μl phosphate reagent (phosphate colorimetric assay kit; Bio Vision) following the manufacturer’s instructions. Data were normalized and fitted using a nonlinear curve, and kinetics parameters (KM and kcat) were calculated from the Michaelis-Menten equation using Graph Pad Prism 9.0. All data points in the enzyme kinetics experiment were measured in triplicate, and the experiments were repeated three times.
Supplementary Table 2: Enzymatic activity assay (Michaelis-Menten analysis); substrate pEGFR peptide-2, derived from the EGFR’s kinase domain activation loop. Calculated kinetic parameter are presented as the mean of nine independent reactions (n=9; mean ± SE). Source data are provided as a Source Data file. kcat (s-1) Km (µM) kcat/Km (µM -1s-1)

[6] = system: pEGFR peptide-1, derived from the cytoplasmic tail of EGFR; assay: Phosphatase kinetic analysis (Michaelis-Menten) of TCPTP constructs, pEGFR peptide-1 substrate; format: biochemical; details: mean ± SE, n = 9 (TCPTPCAT, TCPTP) or 12 (TCPTPC-term, TCPTPL1)
Protocol: as §1

[7] = pEGFR peptide-2 2.5-160 μM, 1 nM enzyme, pH 7.4, 30 °C 30 min

B1: TCPTP_(Tail) (C-terminal tail, residues 303-387) (domain or fragment, human, UniProt P17706-2 303-387, looked up)
chain: HSPNKIMTEKYNGNRIGLEEEKLTGDRCTGLSSKMQDTMEENSESALRKRIREDRKATTAQKVQQMKQRLNENERKRKRPRLTDT
notes: T cell protein tyrosine phosphatase (TCPTP, PTPN2), human, TC45 isoform, C-terminal tail residues 303-387, sub-cloned into pRP1B for all NMR experiments; also called TCPTP C-terminal tail; TCPTP IDR; source: E. coli BL21 (DE3) RIL, purified (His-trap, TEV cleavage, subtraction, heat step 80 °C 10 min, SEC)
binding result [1]: binds

B2: TCPTPTailRK: TCPTPTail with N373R/E374K/N375R/E376K (protein)
chain: B1 chain with N71R, E72K, N73R, E74K
modifications: left off: His6, end not stated, cleaved
notes: TCPTPTail with N373R/E374K/N375R/E376K
NMR titration: interaction strength vs TCPTPTail ([2]; 2D [1H,15N] HSQC, reduction in peak intensities at lower ratio (1:10)): tighter interaction | NMR titration: CSPs in (2H,15N)-labeled TCPTPCAT ([2]; 2D [1H,15N] TROSY, unlabeled ligand added): Small, but clear chemical shift perturbations (CSPs) were readily identified

B3: TCPTP_(TailRK) (N373R/E374K/N375R/E376K) (domain or fragment, human, UniProt P17706-2 303-387, looked up)
chain: B1 chain with N71R, E72K, N73R, E74K
notes: T cell protein tyrosine phosphatase (TCPTP, PTPN2), human, TC45 isoform, C-terminal tail with 373NENE376 changed to 373RKRK376; 15N-labelled when observed; also called TCPTP_(TaiRK); source: E. coli BL21 (DE3) RIL, purified (His-trap, TEV cleavage, subtraction, heat step 80 °C 10 min, SEC)
binding result [1]: binds

B4: PTP1B: PTP1B (residue 1–400) (protein, UniProt P18031 1-400, looked up, fragment)
chain: MEMEKEFEQIDKSGSWAAIYQDIRHEASDFPCRVAKLPKNKNRNRYRDVSPFDHSRIKLHQEDNDYINASLIKMEEAQRSYILTQGPLPNTCGHFWEMVWEQKSRGVVMLNRVMEKGSLKCAQYWPQKEEKEMIFEDTNLKLTLISEDIKSYYTVRQLELENLTTQETREILHFHYTTWPDFGVPESPASFLNFLFKVRESGSLSPEHGPVVVHCSAGIGRSGTFCLADTCLLLMDKRKDPSSVDIKKVLLEMRKFRMGLIQTADQLRFSYLAVIEGAKFIMGDSSVQDQWKELSHEDLEPPPEHIPPPPRPPKRILEPHNGKCREFFPNHQWVKEETQEDKDCPIKEEKGSPLNAAPYGIESMSQDTEVRSRVVGGSLRGAQAASPAKGEPSLPEKDED
autoregulatory behavior of the C-terminal tail (activity vs catalytic domain) [3]: not observed

RPLKKKMEKRPLKKKMEK [ITGA1_TR (ITGA1 tandem repeat; 2x ITGA1_TCT)]
rate of dephosphorylation (EGFR phosphopeptides, DiFMUP) by TCPTP saturated with excess ITGA1 peptide (ITGA1_TR 1 μM), against TCPTP alone [4]: ~3 fold

B5: TCPTPCAT: TCPTP catalytic domain, residues 1–288, 1–302 (NMR) or 1–314 (activity, SAXS) (protein, UniProt P17706 1-314, looked up, fragment)
chain: T2 sequence (P17706 1-314 isoform P17706-2)
modifications: catalytic domain
Km [5, 7]: 34 ± 2.2 µM | kcat [5, 7]: 36.3 ± 0.9 s⁻¹ | kcat/Km ([5]; pEGFR peptide-2): 1.1 ± 0.1 µM -1s-1 | kcat ([6]; pEGFR peptide-1 2.5-160 μM, 1 nM enzyme, 25 mM Hepes pH 7.4, 50 mM NaCl, 1 mM DTT, 30 °C 30 min): 34.0 ± 0.9 s⁻¹ | Km ([6]; pEGFR peptide-1 2.5-160 μM, 1 nM enzyme, pH 7.4, 30 °C 30 min): 24.8 ± 2 µM | kcat/Km ([6]; pEGFR peptide-1, pH 7.4, 30 °C): 1.4e+06 ± 100000 M⁻¹ s⁻¹

KIGFFKRPLKKKMEK [ITGA1_FCT (ITGA1 full cytoplasmic tail)]
rate of dephosphorylation (EGFR phosphopeptides, DiFMUP) by TCPTP saturated with excess ITGA1 peptide (ITGA1_FCT 25 μM), against TCPTP alone [4]: ~3 fold
